From publication PMC5707411 (Nature Communications, 2017) come the findings set out here.

The target of assay [1] is full-length RSV F (TM, residues 1–574) from strain A2 with the DS-Cav1 prefusion-stabilizing mutations (Human respiratory syncytial virus A, …, UniProt P03420, stabilised). Nature of the assay: cell-based or functional assay.
Assay [2] addresses T1, RSV F (+) FdTHS based on strain A2 (wild-type A2 RSV F ectodomain fused to a C-terminal trimerization motif) (Human respiratory syncytial virus A, …, fully glycosylated (N-linked) | fully glycosylated (N-linked)).
T1 construct: F2 subunit (N-terminal fragment of F0 made by furin-like proteases) of the respiratory syncytial virus fusion glycoprotein, strain A2; ectodomain part of the F1 subunit (C-terminal fragment of F0 made by furin-like proteases) of the respiratory syncytial virus fusion glycoprotein, strain A2; Trimer of F2-F1 heterodimers; pep27 is removed by furin-like proteases; also called pre-F; F glycoprotein; …
Nature of the assay: crystal structure; 5C4 Fab co-expressed with RSV F (+) FdTHS in Expi293, complex purified (Ni-NTA, Strep-Tactin, thrombin, Superose 6); crystal from 0.2 M ammonium acetate, 0.1 M Bis-Tris pH 6.5, 25% PEG 3350; 3.4 Å. To be noted: both partners purified.

The target of assay [3] is T2, StrepTagII and 6xHis-tagged RSV pre-F (DS-Cav1) in the 9320 RSV F background (Human respiratory syncytial virus B, …, UniProt Q6V2E7, stabilised).
T2 construct: respiratory syncytial virus fusion glycoprotein, subtype B strain 9320, stabilised in the prefusion conformation by the DS-Cav1 mutations; also called pre-F 9320; pre-F derived from subtype B strain 9320; source: Freestyle 293-F, transfected, expressed with kifunensine (5 µM); purified from supernatant (Strep-Tactin)
Nature of the assay: SPR; 6xHis-tagged pre-F (DS-Cav1) captured on an NTA sensor chip to ~150 RU, Biacore X100; Fab injected in 3-fold dilutions (5C4:pre-F 9320, 0.460–3000 nM); double-reference subtracted, 1:1 binding model. To be noted: both partners purified.

Assay [4] has as its target T3, full-length RSV F (TM, residues 1–574) from strain A2 with the DS-Cav1 prefusion-stabilizing mutations (Human respiratory syncytial virus A, …, UniProt P03420, stabilised).
T3 construct: signal peptide in the construct; In cells F0 is cut by furin-like proteases into F2 and F1 (pep27 removed) and forms trimers; also called RSV A2 pre-F; wild-type A2; source: Expi293, transiently transfected (pVRC8400), on the cell surface
Nature of the assay: flow cytometry on cells; Expi293 cells 48 h after transfection with full-length DS-Cav1 RSV F variants, stained with IgG 1 h at 4 °C (D25 Alexa Fluor 488-conjugated; 5C4 detected with FITC goat anti-mouse), fixed; fractional binding relative to motavizumab. As to conditions: one partner purified.

B1: 5C4 IgG (antibody, V domains shown)
VH: EVQLQQSGAELVKPGASVKLSCTASGFNIKDTFFHWVKQRPEQGLEWIGRIDPADGHTKYDPKFQGKATITADTSSNTAFLQLSSLTSVDTAVYYCATTITAVVPTPYNAMDYWGQGTSVTVSS
VL: DIVLTQSPASLAVSLGQRTTISCRASESVDSFDNSFIHWYQQKPGQPPKLLIFLASSLESGVPARFSGSGSRTDFTLTIDPVEADDAATYYCQQSNEDPFTFGSGTKLEIK
Consider B1, for which, in assay [1], the “EC50 of 5C4 neutralisation of mKate-RSV A2 wild-type virus on HEp-2 cells (viral F without DS-Cav1; antibody format not given)” value is 4 ng/mL.

B2: 5C4 Fab (Fab, V domains shown)
VH: B1 VH
VL: B1 VL
notes: 5C4 Fab heavy chain (antibody elicited in mice); 5C4 Fab light chain (murine kappa, Vk3-10); source: Expi293, transiently co-transfected heavy and light chain plasmids; purified from supernatant (CaptureSelect LC-kappa (murine)); for the complex co-expressed with RSV F
In the case of B2, in assay [2], the “stoichiometry N” value worked out at 3. For the same molecule, the binding result in assay [3] is “binds”.

B3: D25 IgG (antibody, V domains shown)
VH: QVQLVQSGAEVKKPGSSVMVSCQASGGPLRNYIINWLRQAPGQGPEWMGGIIPVLGTVHYAPKFQGRVTITADESTDTAYIHLISLRSEDTAMYYCATETALVVSTTYLPHYFDNWGQGTLVTVSS
VL: DIQMTQSPSSLSAAVGDRVTITCQASQDIVNYLNWYQQKPGKAPKLLIYVASNLETGVPSRFSGSGSGTDFSLTISSLQPEDVATYYCQQYDNLPLTFGGGTKVEIK
notes: D25 heavy chain (human antibody); the variable domain and CH1 are in the D25 Fab of the cited entry PDB 4JHW; rest of the IgG heavy chain not described; D25 light chain (human antibody); in the D25 Fab of the cited entry PDB 4JHW; also called mAb D25; Alexa Fluor 488-conjugated D25 IgG; copies: 2 + 2
In the case of B3, in assay [4], the binding result is listed as “binds”.

What is called stoichiometry N is the number of molecules, sites or subunits per partner or assembly.
